From patent US20240327815A1 come the findings set out here.

For assay [1], the target named is SARS-CoV-2 spike RBD-His (R&D Systems, cat #10500-CV) (SARS-CoV-2) (UniProt P0DTC2). Kind of assay: SPR, 1:1 model.
For assay [2] the target is unchanged. The assay can be described thus: SPR.
For assay [3], the target named is full length wild type SARS-CoV-2 spike glycoprotein on pseudotyped lentivirus (SARS-CoV-2) (UniProt P0DTC2). The assay can be described thus: cell-based or functional assay.
Assay [4] deals with WT SARS-CoV-2 spike protein, plate-coated (MSD V-Plex) (SARS-CoV-2) (UniProt P0DTC2). Kind of assay: MSD competition vs labelled ACE2.

For the substance REGN10933 (Casirivimab) (antibody), the Kd in assay [1] and in assay [2] was 0.0708 nM in each case.
REGN10987 (Imdevimab) (antibody): the Kd in assay [1] and in assay [2] was 0.0869 nM in each case.
Consider REGEN-COV, for which, in assay [3], the Pseudovirus Neutralization (IC50, nM) was 0.09 nM and the Pseudovirus neutralization IC50 stood at 0.09 nM. Besides, the IC50 in assay [4] stood at 0.07 nM.
As for Sotrovimab (antibody), in assay [3], the Pseudovirus Neutralization (IC50, nM) came out at 0.11 nM.
With Bamlanivimab + Etesevimab, in assay [4], the IC50 turned out to be 0.07 nM.
